In patent US20230242602:

Tests used:
[1] = system: ZFP-TF 65918.T2A.57890 (two co-expressed ZFPs) (synthetic construct); test: cell_activity; settings: htau mouse hippocampus, 3E9 VG per hemisphere
[2] = system: ZFP-TF 73133 (R→Q variant anti-tau ZFP-KRAB) (synthetic construct); test: cell_activity; settings: up to, htau mouse hippocampus, AAV9 highest dose, 3 and 6 months

Row | Substance | activity (% reduction of human tau mRNA) [1] | activity (% reduction of human tau mRNA) [2] | activity (% reduction of mouse tau mRNA) [1]
1 | human MAPT gene target region (around TSS) | > 50 | 93 | 
2 | mouse Mapt gene |  |  | > 50
